The values below come from patent US9051577 (GREENOVATION BIOTECH, dated 2015).

Holding throughout (test): cell-based or functional assay
Experiment [1] deals with CD16 (FcgammaRIIIa) 158F/F, low affinity phenotype, on effector cells (PBMC/NK) of a human donor (human) (UniProt P08637).
The target in experiment [2] is CD16 (FcgammaRIIIa) 158V/V, high affinity phenotype, on effector cells (PBMC/NK) of a human donor (human) (UniProt P08637).
For experiment [3], the target named is Fcgamma-RIII receptor (CD16) on human PBMC effector cells, 158 genotype of the donor not stated (human) (UniProt P08637).
Chain of Fcgamma-RIII receptor (CD16) on human PBMC effector cells, 158 genotype of the donor not stated (human) (P08637 17-254): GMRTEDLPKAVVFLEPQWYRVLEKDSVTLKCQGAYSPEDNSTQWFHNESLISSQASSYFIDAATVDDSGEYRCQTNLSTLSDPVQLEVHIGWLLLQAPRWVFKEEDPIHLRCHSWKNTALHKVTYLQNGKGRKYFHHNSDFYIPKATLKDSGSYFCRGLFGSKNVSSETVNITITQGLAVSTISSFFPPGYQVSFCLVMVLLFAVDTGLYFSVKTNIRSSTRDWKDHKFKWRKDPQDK
Experiment [4] deals with Fcgamma-RIII receptor (CD16) on human PBMC effector cells, 158 genotype of the donor not stated (human, UniProt P08637 17-254).
Chain of Fcgamma-RIII receptor (CD16) on human PBMC effector cells, 158 genotype of the donor not stated (P08637 17-254): as above
Experiment [5] deals with CD16 (FcgammaRIIIa) 158V/V, high affinity phenotype, on effector cells (PBMC/NK) of a human donor (human, UniProt P08637 17-254).
Chain of CD16 (FcgammaRIIIa) 158V/V, high affinity phenotype, on effector cells (PBMC/NK) of a human donor (P08637 17-254 F176V): as the sequence (P08637 17-254) above, with F160V counted along it
Experiment [6] deals with CD16 (FcgammaRIIIa) 158F/F, low affinity phenotype, on effector cells (PBMC/NK) of a human donor (human, UniProt P08637 17-254).
Chain of CD16 (FcgammaRIIIa) 158F/F, low affinity phenotype, on effector cells (PBMC/NK) of a human donor (P08637 17-254): as the sequence (P08637 17-254) above

Chain of CD16 (FcgammaRIIIa) 158V/V, high affinity phenotype, on effector cells (PBMC/NK) of a human donor (human) (P08637 17-254 F176V): as the sequence (P08637 17-254) above, with F160V counted along it
Chain of CD16 (FcgammaRIIIa) 158F/F, low affinity phenotype, on effector cells (PBMC/NK) of a human donor (human) (P08637 17-254): as the sequence (P08637 17-254) above

For the molecule “IGN314, glyco-engineered IGN311 variant expressed in delta-xyl-t/delta-fuc-t double knockout moss (Physcomitrella patens) (antibody)”, in experiment [1], the EC50 of ADCC lysis (51Cr release), OVCAR-3 target cells, CD16158 F/F effector cells was 0.025 µg/mL and the Enhancement (ADCC EC50 of IGN311 against IGN314), OVCAR-3, F/F effector cells was 40 fold. Moreover, in experiment [2], the EC50 of ADCC lysis (51Cr release), OVCAR-3 target cells, CD16158 V/V effector cells was 8 ng/mL; the EC50 of ADCC lysis (51Cr release), SK-BR-3 target cells, CD16158 V/V effector cells turned out to be 0.144 µg/mL; the EC50 of ADCC lysis (51Cr release), TF-1 target cells, CD16158 V/V effector cells is 0.366 µg/mL; the Enhancement (ADCC EC50 of IGN311 against IGN314), OVCAR-3, V/V effector cells worked out at 39 fold. Moreover, in experiment [2], the Enhancement (ADCC EC50 of IGN311 against IGN314), SK-BR-3, V/V effector cells was 7 fold and the Enhancement (ADCC EC50 of IGN311 against IGN314), TF-1, V/V effector cells came out at 15 fold. In experiment [3], this molecule showed an EC50 of ADCC lysis of SK-BR-3 cells by human PBMC in 10% FCS of 0.052 µg/mL and an EC50 of ADCC lysis of SK-BR-3 cells by human PBMC in 40% NHS of 0.126 µg/mL.

B1: IGN311, humanized monoclonal IgG anti-Lewis Y antibody (parental, expressed in SP 2.0 cells) (antibody, V domains shown)
VH: EVQLLESGGGLVQPGGSLRLSCAASGFTFSDYYMYWVRQAPEKRLEWVAYISNGGGSSHYVDSVKGRFTISRDNSKNTLYLQMNSLRAEDTALYHCARGMDYGAWFAYWGQGTLVTVSS
VL: DIVMTQSPLSLPVTPGEPASISCRSSQSIVHSNGNTYLEWYLQKPGQSPQLLISKVSNRFSGVPDRFSGSGSGTDFTLKISRVEAEDVGVYYCFQGSHVPFTFGQGTKLEIK
modifications: N-glycan at Asn297 almost completely core-fucosylated, with terminal galactosylation; C-terminal lysine of the heavy chain partly present (both SLSLSPG and SLSLSPGK detected)
In the case of B1, in experiment [4], the “EC50 of ADCC lysis of SK-BR-3 cells by human PBMC in 10% FCS” value was 0.301 µg/mL and the “EC50 of ADCC lysis of SK-BR-3 cells by human PBMC in 40% NHS” value was found to be 1.56 µg/mL. Further, in experiment [5], the “EC50 of ADCC lysis (51Cr release), OVCAR-3 target cells, CD16158 V/V effector cells” value was found to be 0.315 µg/mL; the “EC50 of ADCC lysis (51Cr release), SK-BR-3 target cells, CD16158 V/V effector cells” value was 1.04 µg/mL; the “EC50 of ADCC lysis (51Cr release), TF-1 target cells, CD16158 V/V effector cells” value stood at 5.32 µg/mL. In experiment [6], the “EC50 of ADCC lysis (51Cr release), OVCAR-3 target cells, CD16158 F/F effector cells” value turned out to be 0.993 µg/mL.
